# Measured values from patent US20070048268A1.
# Biological target: human IL-21 receptor (human) (UniProt Q9HBE5)
# Assay: cell-based or functional assay
substance,measurement,value
human IL-21-saporin immunotoxin conjugate (from UniProt P20656 25-277),"3H-thymidine incorporation of MOLT-13 cells, relative to IL-21 treated cells",70%
same,"growth inhibition of IM-9 cells, Alamar Blue proliferation assay, maximal conjugate concentration (250 ng/ml)",79%
same,"growth inhibition of RAMOS cells, Alamar Blue proliferation assay, maximal conjugate concentration (250 ng/ml)",65%
same,"growth of DEL cells, density relative to untreated cells",25%
same,"growth of HuT-78 cells, density relative to untreated cells",33%
same,"growth of HuT-102 cells, density relative to untreated cells",20%
same,"growth of YT cells, density relative to untreated cells",33%
